B1: Golgin subfamily A member 7B (Homo sapiens), Q2TAP0 (parent)
chain: MATEVHNLQELRRSASLATKVFIQRDYSDGTICQFQTKFPPELDSRIERQLFEETVKTLNGFYAEAEKIGGSSYLEGCLACATAYFIFLCMETHYEKVLKKISRYIQEQNEKIFAPRGLLLTDPVERGMRVIEISIYEDRCSSGSSSSGSSSGSGSSSGGGGGAGAR
B2: Palmitoyltransferase ZDHHC5 (Homo sapiens), Q9C0B5 (parent)
chain: MPAESGKRFKPSKYVPVSAAAIFLVGATTLFFAFTCPGLSLYVSPAVPIYNAIMFLFVLANFSMATFMDPGIFPRAEEDEDKEDDFRAPLYKTVEIKGIQVRMKWCATCRFYRPPRCSHCSVCDNCVEEFDHHCPWVNNCIGRRNYRYFFLFLLSLTAHIMGVFGFGLLYVLYHIEELSGVRTAVTMAVMCVAGLFFIPVAGLTGFHVVLVARGRTTNEQVTGKFRGGVNPFTNGCCNNVSRVLCSSPAPRYLGRPKKEKTIVIRPPFLRPEVSDGQITVKIMDNGIQGELRRTKSKGSLEITESQSADAEPPPPPKPDLSRYTGLRTHLGLATNEDSSLLAKDSPPTPTMYKYRPGYSSSSTSAAMPHSSSAKLSRGDSLKEPTSIAESSRHPSYRSEPSLEPESFRSPTFGKSFHFDPLSSGSRSSSLKSAQGTGFELGQLQSIRSEGTTSTSYKSLANQTRNGSLSYDSLLTPSDSPDFESVQAGPEPDPPLGYTSPFLSARLAQQREAERHPRLVPTGPTHREPSPVRYDNLSRHIVASLQEREKLLRQSPPLPGREEEPGLGDSGIQSTPGSGHAPRTSSSSDDSKRSPLGKTPLGRPAVPRFGKPDGLRGRGVGSPEPGPTAPYLGRSMSYSSQKAQPGVSETEEVALQPLLTPKDEVQLKTTYSKSNGQPKSLGSASPGPGQPPLSSPTRGGVKKVSGVGGTTYEISV
partner: B1 chain

Columns and labels:
[1] = variants of: B1; details: with zdhc5_human ZDHHC5, Q9C0B5
[2] = variants of: B1; details: with zdhc5_human ZDHHC5, Q9C0B5; remark: listed apart in the source
[3] = variants of: B2; details: with gog7b_human GOLGA7B, Q2TAP0
[4] = variants of: B2; details: with gog7b_human GOLGA7B, Q2TAP0; remark: listed apart in the source

MATEVHNLQELRRSASLATKVFIQRDYSDGTIAQFQTKFPPELDSRIERQLFEETVKTLNGFYAEAEKIGGSSYLEGALAAATAYFIFLAMETHYEKVLKKISRYIQEQNEKIFAPRGLLLTDPVERGMRVIEISIYEDRASSGSSSSGSSSGSGSSSGGGGGAGAR
effect of a mutation on the interaction [1]: with no effect
effect of a mutation on the interaction [2]: disrupting interaction strength

C134S
effect of a mutation on the interaction [3]: with no effect
effect of a mutation on the interaction [4]: decreasing interaction strength

C236A;C237A;C245A
effect of a mutation on the interaction [3]: disrupting interaction strength
